Data reported in patent US20250388702A1 (Dana-Farber, published 2025).

Key:
KIR2DS1 = molecular target: T1, KIR2DS1 (UniProt Q14954 22-304, limits assumed); assay: HEK293 cell microarray
T1 construct: whole, on cells
Experimental: (§1) Replicate microarray slides expressing a complete KIR family cDNA panel were fixed and blocked with buffer containing PBS/0.5% BSA and incubated for 1 hour at room temperature with individual KIR3DL3 mAb hybridoma supernatants at 1:5, 1:25 and 1:250 dilutions in PBS/0.1% BSA. Cell arrays were washed with PBS and incubated for 1 hour at room temperature in PBS/0.1% BSA containing AF647-conjugated goat anti-mouse IgG (H+L) (Life Technologies, A21235). Slides were washed with PBS, dried, and imaged for ZsGreen1 and AF647 fluorescence.
as §1, with “In Table 4, replicate” for “Replicate”, “the” for “a complete”, “panel (as in FIG. 1A, FIG. 2B, and FIG. 2C)” for “panel”

KIR3DS1 = molecular target: T2, KIR3DS1 (UniProt Q14943 22-382, limits assumed); assay: HEK293 cell microarray
T2 construct: whole, on cells
T2 sequence (Q14943 22-382 limits assumed): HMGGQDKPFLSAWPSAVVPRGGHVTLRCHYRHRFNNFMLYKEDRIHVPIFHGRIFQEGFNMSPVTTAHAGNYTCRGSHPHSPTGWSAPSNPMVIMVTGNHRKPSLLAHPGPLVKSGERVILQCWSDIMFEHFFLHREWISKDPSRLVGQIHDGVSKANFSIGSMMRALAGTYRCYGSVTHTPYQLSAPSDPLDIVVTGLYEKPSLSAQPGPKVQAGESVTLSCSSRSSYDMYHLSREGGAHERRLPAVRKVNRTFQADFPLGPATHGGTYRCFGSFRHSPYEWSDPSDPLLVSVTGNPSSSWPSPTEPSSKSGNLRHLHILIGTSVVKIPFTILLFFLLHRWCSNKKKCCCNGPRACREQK
Experimental: as §1
as §1, with “In Table 4, replicate” for “Replicate”, “the” for “a complete”, “panel (as in FIG. 1A, FIG. 2B, and FIG. 2C)” for “panel”

KIR2DS3 = molecular target: T3, KIR2DS3 (UniProt Q14952 22-304, limits assumed); assay: HEK293 cell microarray
T3 construct: whole, on cells
T3 sequence (Q14952 22-304 limits assumed): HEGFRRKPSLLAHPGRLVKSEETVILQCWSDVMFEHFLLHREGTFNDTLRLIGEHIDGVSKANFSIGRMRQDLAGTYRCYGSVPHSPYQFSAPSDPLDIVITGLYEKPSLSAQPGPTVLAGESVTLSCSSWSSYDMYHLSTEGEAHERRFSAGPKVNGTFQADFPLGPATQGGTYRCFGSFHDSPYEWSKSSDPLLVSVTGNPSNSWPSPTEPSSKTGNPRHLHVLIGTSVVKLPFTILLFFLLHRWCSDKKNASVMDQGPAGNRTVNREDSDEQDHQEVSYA
Experimental: as §1
as §1, with “In Table 4, replicate” for “Replicate”, “the” for “a complete”, “panel (as in FIG. 1A, FIG. 2B, and FIG. 2C)” for “panel”

KIR2DS2 = molecular target: T4, KIR2DS2 (UniProt P43631 22-304, limits assumed); assay: HEK293 cell microarray
T4 construct: whole, on cells
T4 sequence (P43631 22-304 limits assumed): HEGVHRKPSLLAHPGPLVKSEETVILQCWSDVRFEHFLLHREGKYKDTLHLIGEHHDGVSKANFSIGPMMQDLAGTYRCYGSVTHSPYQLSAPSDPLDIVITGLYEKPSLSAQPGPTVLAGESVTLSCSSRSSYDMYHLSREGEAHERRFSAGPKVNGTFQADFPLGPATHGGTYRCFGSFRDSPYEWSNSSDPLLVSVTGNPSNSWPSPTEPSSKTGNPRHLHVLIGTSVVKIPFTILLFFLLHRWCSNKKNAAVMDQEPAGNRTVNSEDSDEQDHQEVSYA
Experimental: as §1
as §1, with “In Table 4, replicate” for “Replicate”, “the” for “a complete”, “panel (as in FIG. 1A, FIG. 2B, and FIG. 2C)” for “panel”

KIR2DL5B = molecular target: T5, KIR2DL5B (UniProt Q8NHK3 22-375, limits assumed); assay: HEK293 cell microarray
T5 construct: whole, on cells
T5 sequence (Q8NHK3 22-375 limits assumed): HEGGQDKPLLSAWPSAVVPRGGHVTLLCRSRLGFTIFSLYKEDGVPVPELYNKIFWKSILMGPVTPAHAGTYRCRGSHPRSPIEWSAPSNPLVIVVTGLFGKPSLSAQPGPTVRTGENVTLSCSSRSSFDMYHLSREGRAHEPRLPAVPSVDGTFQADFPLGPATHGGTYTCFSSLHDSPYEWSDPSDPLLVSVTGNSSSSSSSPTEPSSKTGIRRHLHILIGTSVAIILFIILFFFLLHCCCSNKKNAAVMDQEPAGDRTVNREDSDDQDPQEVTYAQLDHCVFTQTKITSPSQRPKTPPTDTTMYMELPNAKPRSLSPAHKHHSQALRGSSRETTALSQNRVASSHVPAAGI
Experimental: as §1
as §1, with “In Table 4, replicate” for “Replicate”, “the” for “a complete”, “panel (as in FIG. 1A, FIG. 2B, and FIG. 2C)” for “panel”

KIR2DL3 = molecular target: T6, KIR2DL3 (UniProt P43628 22-341, limits assumed); assay: HEK293 cell microarray
T6 construct: whole, on cells
T6 sequence (P43628 22-341 limits assumed): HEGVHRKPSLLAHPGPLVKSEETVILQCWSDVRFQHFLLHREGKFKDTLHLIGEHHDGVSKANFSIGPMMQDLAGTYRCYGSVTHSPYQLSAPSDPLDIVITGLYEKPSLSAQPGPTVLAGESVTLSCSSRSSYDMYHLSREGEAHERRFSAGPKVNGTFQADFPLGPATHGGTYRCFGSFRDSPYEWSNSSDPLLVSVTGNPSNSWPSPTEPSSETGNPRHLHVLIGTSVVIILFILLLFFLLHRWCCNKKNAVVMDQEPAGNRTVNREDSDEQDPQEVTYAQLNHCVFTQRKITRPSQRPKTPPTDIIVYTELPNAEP
Experimental: as §1
as §1, with “In Table 4, replicate” for “Replicate”, “the” for “a complete”, “panel (as in FIG. 1A, FIG. 2B, and FIG. 2C)” for “panel”

KIR3DL2 = molecular target: T7, KIR3DL2 (UniProt P43630 22-455, limits assumed); assay: HEK293 cell microarray
T7 construct: whole, on cells
T7 sequence (P43630 22-455 limits assumed): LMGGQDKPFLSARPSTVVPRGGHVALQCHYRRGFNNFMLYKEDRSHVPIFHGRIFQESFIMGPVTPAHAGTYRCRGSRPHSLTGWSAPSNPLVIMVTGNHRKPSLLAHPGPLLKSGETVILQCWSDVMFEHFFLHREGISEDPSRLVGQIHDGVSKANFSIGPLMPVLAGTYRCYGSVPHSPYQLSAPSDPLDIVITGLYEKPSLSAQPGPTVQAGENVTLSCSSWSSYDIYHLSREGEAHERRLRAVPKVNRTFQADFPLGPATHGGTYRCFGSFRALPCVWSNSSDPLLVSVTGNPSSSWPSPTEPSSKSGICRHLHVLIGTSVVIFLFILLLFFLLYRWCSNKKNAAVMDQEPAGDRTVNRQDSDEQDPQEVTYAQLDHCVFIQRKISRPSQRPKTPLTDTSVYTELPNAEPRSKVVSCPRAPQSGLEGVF
Experimental: as §1
as §1, with “In Table 4, replicate” for “Replicate”, “the” for “a complete”, “panel (as in FIG. 1A, FIG. 2B, and FIG. 2C)” for “panel”

KIR2DL1 = molecular target: T8, KIR2DL1 (UniProt P43626 22-348, limits assumed); assay: HEK293 cell microarray
T8 construct: whole, on cells
T8 sequence (P43626 22-348 limits assumed): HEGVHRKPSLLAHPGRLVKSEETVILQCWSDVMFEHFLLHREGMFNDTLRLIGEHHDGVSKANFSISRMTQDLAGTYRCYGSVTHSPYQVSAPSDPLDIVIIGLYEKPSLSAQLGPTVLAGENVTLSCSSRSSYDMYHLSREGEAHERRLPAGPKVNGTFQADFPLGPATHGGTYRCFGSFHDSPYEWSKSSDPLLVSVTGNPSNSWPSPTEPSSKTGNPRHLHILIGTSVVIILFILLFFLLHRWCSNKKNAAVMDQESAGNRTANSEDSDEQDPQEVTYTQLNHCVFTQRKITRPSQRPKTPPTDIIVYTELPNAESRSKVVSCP
Experimental: as §1
as §1, with “In Table 4, replicate” for “Replicate”, “the” for “a complete”, “panel (as in FIG. 1A, FIG. 2B, and FIG. 2C)” for “panel”

KIR2DS5 = molecular target: T9, KIR2DS5 (UniProt Q14953 22-304, limits assumed); assay: HEK293 cell microarray
T9 construct: whole, on cells
T9 sequence (Q14953 22-304 limits assumed): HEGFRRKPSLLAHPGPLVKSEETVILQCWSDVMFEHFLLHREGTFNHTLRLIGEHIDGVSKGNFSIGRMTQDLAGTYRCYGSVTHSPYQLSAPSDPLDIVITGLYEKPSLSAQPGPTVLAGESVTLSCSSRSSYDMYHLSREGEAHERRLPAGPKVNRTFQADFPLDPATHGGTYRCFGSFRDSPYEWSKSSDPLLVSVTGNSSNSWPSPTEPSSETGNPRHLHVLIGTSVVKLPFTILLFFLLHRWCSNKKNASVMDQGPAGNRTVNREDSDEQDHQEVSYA
Experimental: as §1
as §1, with “In Table 4, replicate” for “Replicate”, “the” for “a complete”, “panel (as in FIG. 1A, FIG. 2B, and FIG. 2C)” for “panel”

KIR2DL4 = molecular target: T10, KIR2DL4 (UniProt Q99706 22-377, limits assumed); assay: HEK293 cell microarray
T10 construct: whole, on cells
T10 sequence (Q99706 22-377 limits assumed): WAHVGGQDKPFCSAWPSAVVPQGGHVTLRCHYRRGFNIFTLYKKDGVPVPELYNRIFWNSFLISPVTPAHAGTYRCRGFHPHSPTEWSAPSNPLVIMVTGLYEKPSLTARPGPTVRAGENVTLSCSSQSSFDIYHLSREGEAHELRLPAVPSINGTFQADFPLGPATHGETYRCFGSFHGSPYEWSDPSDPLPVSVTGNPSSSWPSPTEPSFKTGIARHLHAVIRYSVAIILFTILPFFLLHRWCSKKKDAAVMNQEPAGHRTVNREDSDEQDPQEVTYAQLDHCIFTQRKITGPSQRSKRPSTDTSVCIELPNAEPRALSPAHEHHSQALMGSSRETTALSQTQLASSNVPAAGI
Experimental: as §1
as §1, with “In Table 4, replicate” for “Replicate”, “the” for “a complete”, “panel (as in FIG. 1A, FIG. 2B, and FIG. 2C)” for “panel”

KIR2DL2 = molecular target: T11, KIR2DL2 (UniProt P43627 22-348, limits assumed); assay: HEK293 cell microarray
T11 construct: whole, on cells
T11 sequence (P43627 22-348 limits assumed): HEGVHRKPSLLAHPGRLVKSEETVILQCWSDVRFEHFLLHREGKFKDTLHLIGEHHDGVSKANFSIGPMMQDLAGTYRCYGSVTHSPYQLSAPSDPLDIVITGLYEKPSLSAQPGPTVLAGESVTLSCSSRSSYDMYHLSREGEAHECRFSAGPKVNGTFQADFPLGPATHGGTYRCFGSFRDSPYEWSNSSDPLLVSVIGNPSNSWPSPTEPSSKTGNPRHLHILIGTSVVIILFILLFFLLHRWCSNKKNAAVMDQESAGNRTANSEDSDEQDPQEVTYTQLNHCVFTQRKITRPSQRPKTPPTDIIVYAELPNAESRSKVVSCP
Experimental: as §1
as §1, with “In Table 4, replicate” for “Replicate”, “the” for “a complete”, “panel (as in FIG. 1A, FIG. 2B, and FIG. 2C)” for “panel”

KIR3DL1 = molecular target: T12, KIR3DL1 (UniProt P43629 22-444, limits assumed); assay: HEK293 cell microarray
T12 construct: whole, on cells
T12 sequence (P43629 22-444 limits assumed): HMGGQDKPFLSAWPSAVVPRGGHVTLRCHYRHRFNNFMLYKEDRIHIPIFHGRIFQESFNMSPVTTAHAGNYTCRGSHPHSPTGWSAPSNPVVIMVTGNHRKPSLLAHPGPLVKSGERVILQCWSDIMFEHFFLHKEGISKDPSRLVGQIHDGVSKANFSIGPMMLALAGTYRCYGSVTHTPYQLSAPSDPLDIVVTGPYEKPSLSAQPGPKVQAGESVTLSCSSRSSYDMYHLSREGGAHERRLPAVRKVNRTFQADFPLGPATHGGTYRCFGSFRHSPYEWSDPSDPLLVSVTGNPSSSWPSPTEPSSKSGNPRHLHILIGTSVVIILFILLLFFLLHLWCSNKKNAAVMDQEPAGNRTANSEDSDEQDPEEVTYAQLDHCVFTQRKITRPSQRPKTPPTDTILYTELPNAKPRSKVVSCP
Experimental: as §1
as §1, with “In Table 4, replicate” for “Replicate”, “the” for “a complete”, “panel (as in FIG. 1A, FIG. 2B, and FIG. 2C)” for “panel”

Human KIR3DL3 [1] = molecular target: T13, Human KIR3DL3 (human, UniProt Q8N743 26-410); assay: flow cytometry, KIR3DL3-transfected 300.19 cells
T13 construct: also called Killer cell immunoglobulin-like receptor 3DL3
T13 sequence (Q8N743 26-410 H321N limits assumed): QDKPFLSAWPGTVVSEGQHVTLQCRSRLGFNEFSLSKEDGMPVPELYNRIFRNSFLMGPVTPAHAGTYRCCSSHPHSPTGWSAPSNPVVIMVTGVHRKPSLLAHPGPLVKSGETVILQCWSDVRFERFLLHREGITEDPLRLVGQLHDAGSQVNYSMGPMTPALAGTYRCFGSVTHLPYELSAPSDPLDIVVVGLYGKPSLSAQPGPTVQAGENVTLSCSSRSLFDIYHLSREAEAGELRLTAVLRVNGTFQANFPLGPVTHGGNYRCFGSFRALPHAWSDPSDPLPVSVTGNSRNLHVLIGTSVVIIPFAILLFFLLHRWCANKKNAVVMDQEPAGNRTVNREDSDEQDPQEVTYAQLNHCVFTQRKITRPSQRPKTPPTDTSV

Human KIR3DL3 [2] = molecular target: T13, Human KIR3DL3; assay: flow cytometry; blockade of HHLA2-mIgG2a binding to KIR3DL3-transfected 300.19 cells
Experimental: (§2) The indicated concentrations of KIR3DL3 mAbs were pre-incubated with KIR3DL3 transfected 300.19 cells for 30 minutes at 4° C. […] EC50 and IC50 analysis were conducted using GraphPad Prism®.

Human KIR3DL3 [3] = molecular target: T13, Human KIR3DL3; assay: cell-based or functional assay
Human KIR3DL3 [4] = molecular target: T13, Human KIR3DL3; assay: flow cytometry, KIR3DL3-transfected 300.19 cells; remark: listed apart in the source
Human KIR3DL3 [5] = molecular target: T13, Human KIR3DL3; assay: flow cytometry; blockade of HHLA2-mIgG2a binding to KIR3DL3-transfected cells
Experimental: as §2

[6] = molecular target: T14, Human KIR3DL3, Sino Biological Cat#: 16055-H08H (human, UniProt Q8N743 26-322); assay: BLI (Octet RED96), antibody captured on the sensor, antigen in solution, 1:1 model
T14 construct: Bought soluble antigen; also called KIR3DL3 (Octet antigen)
T14 sequence (Q8N743 other isoform, or with tags, fused parts or gaps H08H H08H limits assumed): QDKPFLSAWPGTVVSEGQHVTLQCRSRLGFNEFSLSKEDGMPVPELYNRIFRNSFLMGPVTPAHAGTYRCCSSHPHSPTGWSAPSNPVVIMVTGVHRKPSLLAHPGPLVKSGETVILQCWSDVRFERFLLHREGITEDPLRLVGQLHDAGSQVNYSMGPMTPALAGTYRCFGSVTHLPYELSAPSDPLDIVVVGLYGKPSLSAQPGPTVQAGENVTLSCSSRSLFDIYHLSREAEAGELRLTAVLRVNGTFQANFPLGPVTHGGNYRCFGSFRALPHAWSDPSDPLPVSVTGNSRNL
Experimental: Binding experiments were performed on Octat Red af 25″° C. The human antibodies were loaded onto Anti-higG Fe Capture biosensors and the mouse antibodies were loaded onto Anti-migG Fe Capture biosensors both for 300 seconds. The ligand loaded sensors were dipped into a 3-fold series dilution (starting at 300 nad) of the antigens (PD-1 and KIR3DL3) for 240 seconds followed by dissociation for 400 seconds. Kinetic constanta were calculated using a monovalent (1:1) binding model Antigen: Haman PD1, Sino Biological Cat #: HPLC-10377-HOSH.

KIR2DL5A = molecular target: T15, KIR2DL5A (UniProt Q8N109 22-375, limits assumed); assay: HEK293 cell microarray
T15 construct: whole, on cells
T15 sequence (Q8N109 22-375 limits assumed): as the sequence (Q8NHK3 22-375 limits assumed) above, with D152N, S174G counted along it
Experimental: as §1
as §1, with “In Table 4, replicate” for “Replicate”, “the” for “a complete”, “panel (as in FIG. 1A, FIG. 2B, and FIG. 2C)” for “panel”

T1 sequence (Q14954 22-304 limits assumed): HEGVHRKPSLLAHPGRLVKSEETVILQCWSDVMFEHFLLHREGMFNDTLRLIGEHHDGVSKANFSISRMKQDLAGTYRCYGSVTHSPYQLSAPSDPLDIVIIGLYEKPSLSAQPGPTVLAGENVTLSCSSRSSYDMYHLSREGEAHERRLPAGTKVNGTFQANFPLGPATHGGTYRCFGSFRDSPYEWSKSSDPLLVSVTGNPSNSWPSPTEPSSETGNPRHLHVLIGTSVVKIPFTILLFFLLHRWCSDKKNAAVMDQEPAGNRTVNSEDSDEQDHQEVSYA

Binder | binding result (KIR2DS1) | binding result (KIR3DS1) | binding result (KIR2DS3) | binding result (KIR2DS2) | binding result (KIR2DL5B) | binding result (KIR2DL3) | binding result (KIR3DL2) | binding result (KIR2DL1) | binding result (KIR2DS5) | binding result (KIR2DL4) | binding result (KIR2DL2) | binding result (KIR3DL1) | Kd (Human KIR3DL3 [1]) [µg/mL] | IC50 (Human KIR3DL3 [2]) [µg/mL] | Jurkat IL-2 Luciferase Activation, EC50 (Human KIR3DL3 [3]) [µg/mL] | Jurkat IL-2 Luciferase, Fold Activation (Human KIR3DL3 [3]) [fold] | also measured
KIR3DL3 mAb 574.2.2D8.6.9 (antibody, IgG2b, V domains shown, Mouse hybridoma antibody, IgG2b; also called AVS-3702) VH: DVQLVESGGGLVQPGGSRKLSCAASGFTFSYFGMHWVRRAPEKGLEWVAFISSDSTTIYYTDTVKGRFTISRDNPKNTLFLQMTSLRSEDTAIYYCARFYDGAMDYWGQGTSVTVST VL: DIVMTQSQKFMSTSVGDRVSITCKASQSVRTAVAWYQQKPGQSPKVLIYLASNRHTGVPDRFTGSGSGTDFTLTISNVQSEDLADYFCLQHWNYPLTFGAGTKLELK | no binding (tested: supernatant 1:5, 1:25, 1:250) | no binding (tested: supernatant 1:5, 1:25, 1:250) | no binding (tested: supernatant 1:5, 1:25, 1:250) | no binding (tested: supernatant 1:5, 1:25, 1:250) | no binding (tested: supernatant 1:5, 1:25, 1:250) | no binding (tested: supernatant 1:5, 1:25, 1:250) | no binding (tested: supernatant 1:5, 1:25, 1:250) | no binding (tested: supernatant 1:5, 1:25, 1:250) | no binding (tested: supernatant 1:5, 1:25, 1:250) | no binding (tested: supernatant 1:5, 1:25, 1:250) | no binding (tested: supernatant 1:5, 1:25, 1:250) | no binding (tested: supernatant 1:5, 1:25, 1:250) | 0.46 | 0.21 | 1.3 | 14.9 | 
KIR3DL3 mAb 574.2.2H1.11.6 (antibody, IgG2b, V domains shown, Mouse hybridoma antibody, IgG2b; only variable domains given; also called AVS-3704) VH: DVQLVESGGGLVQPGGSRKLSCAASGFTFSYFGMHWVRRAPEKGLEWVAFISSDSTTIYYTDTVKGRFTISRDNPKNTLFLQMTSLRSEDTAIYYCARFYDGAMDYWGQGTSVTVST VL: DIVMTQSQKFMSTSVGDRVSITCKASQSVRTAVAWYQQKPGQSPKVLIYLASNRHTGVPDRFTGSGSGTDFTLTISNVQSEDLADYFCLQHWNYPLTFGAGTKLELK | no binding (tested: supernatant 1:5, 1:25, 1:250) | no binding (tested: supernatant 1:5, 1:25, 1:250) | no binding (tested: supernatant 1:5, 1:25, 1:250) | no binding (tested: supernatant 1:5, 1:25, 1:250) | no binding (tested: supernatant 1:5, 1:25, 1:250) | no binding (tested: supernatant 1:5, 1:25, 1:250) | no binding (tested: supernatant 1:5, 1:25, 1:250) | no binding (tested: supernatant 1:5, 1:25, 1:250) | no binding (tested: supernatant 1:5, 1:25, 1:250) | no binding (tested: supernatant 1:5, 1:25, 1:250) | no binding (tested: supernatant 1:5, 1:25, 1:250) | no binding (tested: supernatant 1:5, 1:25, 1:250) | 0.42 | 0.19 | 1.79 | 16.2 | 
KIR3DL3 mAb 574.2.2F11.2.7.4 (antibody, IgG2b, V domains shown, Parental mouse hybridoma antibody, IgG2b; only variable domains given; also called AVS-3703) VH: DVQLVESGGGLVQPGGSRKLSCAASGFTFSYFGMHWVRRAPEKGLEWVAFISSDSTTIYYTDTVKGRFTISRDNPKNTLFLQMTSLRSEDTAIYYCARFYDGAMDYWGQGTSVTVST VL: DIVMTQSQKFMSTSVGDRVSITCKASQSVRTAVAWYQQKPGQSPKVLIYLASNRHTGVPDRFTGSGSGTDFTLTISNVQSEDLADYFCLQHWNYPLTFGAGTKLELK | no binding (tested: supernatant 1:5, 1:25, 1:250) | no binding (tested: supernatant 1:5, 1:25, 1:250) | no binding (tested: supernatant 1:5, 1:25, 1:250) | no binding (tested: supernatant 1:5, 1:25, 1:250) | no binding (tested: supernatant 1:5, 1:25, 1:250) | no binding (tested: supernatant 1:5, 1:25, 1:250) | no binding (tested: supernatant 1:5, 1:25, 1:250) | no binding (tested: supernatant 1:5, 1:25, 1:250) | no binding (tested: supernatant 1:5, 1:25, 1:250) | no binding (tested: supernatant 1:5, 1:25, 1:250) | no binding (tested: supernatant 1:5, 1:25, 1:250) | no binding (tested: supernatant 1:5, 1:25, 1:250) | 0.43 | 0.16 | 1.25 | 17.1 | EC50 (Human KIR3DL3 [4]): 0.43 µg/mL; IC50 (Human KIR3DL3 [5]): 0.42 µg/mL; Kd [6]: 0.506 nM; koff [6]: 0.000118 s⁻¹; kon [6]: 233000 M⁻¹ s⁻¹
KIR3DL3 mAb 574.2.1C7.D2.6.5 (antibody, IgG1, V domains shown, Mouse hybridoma antibody, IgG1; only variable domains given; also called AVS-3698) VH: QVQLQQSGAELMKPGASVKISCKATGYTFSNYWIEWIKQRPGHGLEWIGEILPGSGSTNYNEKFKGKATFTAATSSNTAYMQLSSLTSEDSAVYYCARRVPDYYGSRYYFDYWGQGTTLTVSS VL: NIVMTQSPKSMSMSVGERVTLSCKASENVGIYVSWYQQKPEQSPKLLIYGASNRYTGVPDRFTGSGSATDFTLTISSVQAEDLADYHCGQSYNYPFTFGSGTKLEIK | no binding (tested: supernatant 1:5, 1:25, 1:250) | no binding (tested: supernatant 1:5, 1:25, 1:250) | no binding (tested: supernatant 1:5, 1:25, 1:250) | no binding (tested: supernatant 1:5, 1:25, 1:250) | no binding (tested: supernatant 1:5, 1:25, 1:250) | no binding (tested: supernatant 1:5, 1:25, 1:250) | no binding (tested: supernatant 1:5, 1:25, 1:250) | no binding (tested: supernatant 1:5, 1:25, 1:250) | no binding (tested: supernatant 1:5, 1:25, 1:250) | no binding (tested: supernatant 1:5, 1:25, 1:250) | no binding (tested: supernatant 1:5, 1:25, 1:250) | no binding (tested: supernatant 1:5, 1:25, 1:250) | 0.77 | 0.32 | 77 | 8.2 | binding result (KIR2DL5A): no binding (tested: supernatant 1:5, 1:25, 1:250)
